Where a chain is given by its changes, count along the chain named. Where two headings read alike, the source gives them in different places.
What was measured:
soy seed = assay: Free amino acid analysis of soy seed (tryptophan content); format: in vivo, Glycine max; details: R1 soy seeds expressing the mutant protein
Description: Amino Acid Extraction: About 50 mg of crushed soy seed (5 mg of Arabidopsis) material was placed in each centrifuge vial. One milliliter of 5% trichloroacetic acid was added to each sample (100 μl for Arabidopsis). The samples were vortexed, and allowed to sit, with agitation, at room temperature for 15 min. They were then microcentrifuged for 15 min at 14000 rpm. Some of the supernatant was then removed, placed in a HPLC vial and sealed. Samples were kept at 4° C. in the analysis queue.
Amino Acid Analysis: The reagents utilized for amino acid analysis included the OPA reagent (o-phthalaldehyde and 3-mercaptopropionic acid in borate buffer (Hewlett-Packard, PN 5061-3335)) where the borate buffer (0.4 N in water, pH 10.2). The analysis was performed using the Agilent 1100 series HPLC system as described in the Agilent Technical Publication, “Amino Acid Analysis Using Zorbax Eclipse-AAA Columns and the Agilent 1100 HPLC”, Mar. 17, 2000. First, 0.5 μl of the sample was derivatized with 2.5 μl of OPA reagent in 10 μl of borate buffer. Second, the derivative is injected onto a Eclipse XDB-C18 5 μm, 4.6×150 mm column using a flow rate of 1.2 ml/min. Amino acid concentrations were measured using fluorescence: excitation at 340 nm, emission at 450 nm. Elution was with a gradient of HPLC Buffers A and B according to Table A, where HPLC Buffer A was 40 mM Na2HPO4, pH=7.8 and HPLC Buffer B was 9:9:2::Methanol:Acetonitrile:Water.
Amino acid standards were prepared from the dry chemicals, using all amino acids of interest. Proline analysis required an additional derivatization step with 9-fluorenylmethyl-chloroformate (FMOC). Amino acid standards were also sometimes purchased in concentrations ranging from 0 to 100 μg/ml. Samples were reported in μg/g of seed powder.
Mature R1 seed is produced and analyzed for free amino acid content using fluorescence detection as described in Agilent Technologies Technical Bulletin REV14. Five seeds are chosen for single seed analysis from each event. […] The highest levels of tryptophan have a negative impact on germination.

Agro AS = Agro AS enzyme assay, HPLC end-point, desalted extracts of individual soybean seeds; format: biochemical, Agrobacterium tumefaciens; details: R1 soy seeds carrying the mutant allele
Description: The specific activity of anthranilate synthase was measured in eleven transformation events carrying the pMON58120 construct. Individual soybean immature seeds were analyzed using an HPLC-based end-point assay based on the method described by C. Paulsen (J. Chromatogr., 547:155-160 (1991)). Briefly, desalted extracts were generated from individual seeds in grinding buffer (100 mM Tris pH7.5, 10% glycerol, 1 mM EDTA, 1 mM DTT) and incubated for 30 min with reaction buffer (100 mM tris pH 7.5, 1 mM chorismate, 20 mM glutamine, and 10 mM MgCl2). Agro AS activity was measured in the presence or absence of 25 mM trp. The reaction was stopped with phosphoric acid and the amount of anthranilate formed was quantified by HPLC using a fluorescence detector set at 340 nm/excitation and 410 nm/emission.

[1] = tested on: Agrobacterium tumefaciens AS; assay: Anthranilate synthase enzyme assay and kinetic analysis of purified enzymes; format: biochemical; details: for Km: 25° C.
Description: Agrobacterium tumefaciens AS wild type and mutant enzymes were expressed in E. coli as described in Example 1. The purification of all the Agrobacterium tumefaciens AS enzymes, including wild type and mutants thereof, was performed at 4° C. The cells (approximate wet weight of 1 g) were suspended in 20 ml of purification buffer (50 mM potassium phosphate, pH 7.3, 10 mM MgCl2, 10 mM 2-mercaptoethanol, 10% glycerol) and lysed by ultrasonication (Branson sonifier Cell Disruptor, W185). Supernatant was collected after centrifugation of the homogenate at 20,000×g for 15 min. The supernatant was subjected to ammonium sulfate fractionation (30 to 65% saturation). The precipitate was collected after centrifugation at 20,000×g for 15 min and dissolved in 3 ml of the purification buffer and then loaded as a whole on an Econo-Pac 10DG desalting column, pre-equilibrated with the same buffer. Fractions containing the enzyme were detected by the developed assay and pooled. The pooled enzyme (4.3 mls) was loaded on a 10 ml DEAF Sephacel (Pharmacia Biotech) column (1.5×7.5 cm) equilibrated with the same buffer. The column was washed with 30 ml of the purification buffer and the enzyme was eluted with 30 ml of 50 mM NaCl in the same buffer. Fractions containing high AS activity were pooled and precipitated by 65% ammonium sulfate saturation and isolated and desalted as above. Fractions containing the enzyme were pooled and stored at −80° C.
The standard assay for Agrobacterium tumefaciens AS was performed at 25° C. in an assay buffer containing 100 mM potassium phosphate, pH 7.0, 10 mM MgCl2, 1 mM dithiothreitol, 200 μM chorismate and 10 mM L-glutamine. The reaction was started by adding 30 μl of enzyme to the reaction mixture and mixing. The formation of anthranilate was directly monitored by the absorbance increase at 320 m for 3 minutes. Initial rate of reaction was calculated as unit absorbance increase per second based on the slope of the absorbance change over the reaction time. Km for chorismate (Km^Cho) was determined in the total volume of 1 ml assay buffer containing 100 mM potassium phosphate, pH 7.0, 10 mM MgCl2, 1 mM dithiothreitol with 10 mM L-glutamine and varying the concentration of chorismate between 2.5-100 μM chorismate. The Km for glutamine (Km^Gln) was determined in the total volume of 1 ml assay buffer containing 100 mM potassium phosphate, pH 7.0, 10 mM MgCl2, 1 mM dithiothreitol with 200 μM chorismate and varying the concentration of L-glutamine between 0.1-2 mM L-glutamine. IC50 for tryptophan (IC50^Trp) was determined with in the total volume of 1 ml assay buffer containing 100 mM potassium phosphate, pH 7.0, 10 mM MgCl2, 1 mM dithiothreitol, 10 mM L-glutamine, 200 μM chorismate and varying the concentration of L-tryptophan between 0.1-10 mM L-tryptophan. Kinetic parameters and IC50 of AS were calculated after fitting the data to a non-linear regression program (GraFit).

B1: F298W (protein)
chain: MVTIIQDDGAETYETKGGIQVSRKRRPTDYANAIDNYIEKLDSHRGAVFSSNYEYPGRYTRWDTAIVDPPLGISCFGRKMWIEAYNGRGEVLLDFITEKLKATPDLTLGASSTRRLDLTVNEPDRVFTEEERSKIPTVFTALRAIVDLFYSSADSAIGLFGAFGYDLAFQFDAIKLSLARPEDQRDMVLFLPDEILVVDHYSAKAWIDRYDFEKDGMTTDGKSSDITPDPFKTTDTIPPKGDHRPGEYSELVVKAKESFRRGDLFEVVPGQKFMERCESNPSAISRRLKAINPSPYSWFINLGDQEYLVGASPEMFVRVSGRRIETCPISGTIKRGDDPIADSEQILKLLNSKKDESELTMCSDVDRNDKSRVCEPGSVKVIGRRQIEMYSRLIHTVDHIEGRLRDDMDAFDGFLSHAWAVTVTGAPKLWAMRFIEGHEKSPRAWYGGAIGMVGFNGDMNTGLTLRTIRIKDGIAEVRAGATLLNDSNPQEEEAETELKASAMISAIRDAKGTNSAATKRDAAKVGTGVKILLVDHEDSFVHTLANYFRQTGATVSTVRSPVAADVFDRFQPDLVVLSPGPGSPTDFDCKATIKAARARDLPIFGVCLGLQALAEAYGGELRQLAVPMHGKPSRIRVLEPGLVFSGLGKEVTVGRYHSIFADPATLPRDFIITAESEDGTIMGIEHAKEPVAAVQFHPESIMTLGQDAGMRMIENVVVHLTRKAKTKAA
modifications: An A. tumefaciens mutant.
In the case of B1, the amounts of tryptophan (soy seed) is reported as “very high amounts of tryptophan”, the “tryptophan-resistant anthranilate synthase activity” value (Agro AS) is reported as “Very high levels” and the Km ([1]; pH 7.0, 200 μM chorismate, L-glutamine varied, read-out: Km^Gln) is reported as 140 µM. The Km ([1]; pH 7.0, 10 mM L-glutamine, chorismate varied, read-out: Km^Cho) was 18 µM, the IC50 ([1]; inhibition by L-tryptophan, 10 mM L-glutamine, 200 μM chorismate) was 450 µM and the kcat ([1]; purified enzyme from E. coli) was 0.44 s⁻¹.

B2: S51F (protein)
chain: B1 chain with S51F, W298F
modifications: An A. tumefaciens mutant.
For B2, the amounts of tryptophan (soy seed) was “very high amounts of tryptophan” and the “tryptophan-resistant anthranilate synthase activity” value (Agro AS) was “Very high levels”.

From patent US8158851B2, “Transgenic high tryptophan plants” (Monsanto Technology LLC, priority 2002, dated 2012)
